Experiments:
[1] = molecular target: spin labeled L705C mutant of C99 (human) (UniProt P05067); test: continuous wave EPR of spin labeled protein
[2] = molecular target: spin labeled S697C mutant of C99 (human) (UniProt P05067); test: continuous wave EPR of spin labeled protein

KD, average of four fits (sites S697C and L705C, two fields each) [1] [mol%]	KD, average of four fits (sites S697C and L705C, two fields each) [2] [mol%]	Substance
0.44		spin labeled L705C mutant of C99 (from UniProt P05067 672-770) (domain or fragment)
	0.44	spin labeled S697C mutant of C99 (from UniProt P05067 672-770) (domain or fragment)

— PMC3758481
